Measurements from paper PMC5464963 (Cell Reports, 2017).

B1: His-ECTO (His-tagged ENG ectodomain) of the purified His-ECTO-BMP9 complex (receptor, human, UniProt P17813 26-586, looked up)
chain: ETVHCDLQPVGPERGEVTYTTSQVSKGCVAQAPNAILEVHVLFLEFPTGPSQLELTLQASKQNGTWPREVLLVLSVNSSVFLHLQALGIPLHLAYNSSLVTFQEPPGVNTTELPSFPKTQILEWAAERGPITSAAELNDPQSILLRLGQAQGSLSFCMLEASQDMGRTLEWRPRTPALVRGCHLEGVAGHKEAHILRVLPGHSAGPRTVTVKVELSCAPGDLDAVLILQGPPYVSWLIDANHNMQIWTTGEYSFKIFPEKNIRGFKLPDTPQGLLGEARMLNASIVASFVELPLASIVSLHASSCGGRLQTSPAPIQTTPPKDTCSPELLMSLIQTKCADDAMTLVLKKELVAHLKCTITGLTFWDPSCEAEDRGDKFVLRSAYSSCGMQVSASMISNEAVVNILSSSSPQRKKVHCLNMDSLSFQLGLYLSPHFLQASNTIEPGQQSFVQVRVSPSVSEFLLQLDSCHLDLGPEGGTVELIQGRAAKGNCVSLLSPSPEGDPRFSFLLHFYTVPIPKTGTLSCTVALRPKTGSQDQEVHRTVFMRLNIISPDLSGCTSKG

How the values were obtained:
[1] = molecular target: T1, BMP9 as used in biolayer interferometry (human) (UniProt Q9UK05); test: BLI
T1 sequence (Q9UK05 320-429, looked up): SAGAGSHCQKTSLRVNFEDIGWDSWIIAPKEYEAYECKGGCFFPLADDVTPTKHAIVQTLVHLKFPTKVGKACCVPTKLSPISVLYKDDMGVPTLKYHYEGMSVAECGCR

[2] = molecular target: the molecule itself; test: non-reducing SDS-PAGE and immunoblot
[3] = molecular target: B1; test: SEC-MALS
SEC-MALS = molecular target: the molecule itself; test: SEC-MALS

Binder | Kd [1] [nM] | koff [1] [s⁻¹] | kon [1] [M⁻¹ s⁻¹] | stoichiometry N [2] | other results
full-length ectodomain of ENG (ECTO) as used in biolayer interferometry (receptor) ETVHCDLQPVGPERGEVTYTTSQVSKGCVAQAPNAILEVHVLFLEFPTGPSQLELTLQASKQNGTWPREVLLVLSVNSSVFLHLQALGIPLHLAYNSSLVTFQEPPGVNTTELPSFPKTQILEWAAERGPITSAAELNDPQSILLRLGQAQGSLSFCMLEASQDMGRTLEWRPRTPALVRGCHLEGVAGHKEAHILRVLPGHSAGPRTVTVKVELSCAPGDLDAVLILQGPPYVSWLIDANHNMQIWTTGEYSFKIFPEKNIRGFKLPDTPQGLLGEARMLNASIVASFVELPLASIVSLHASSCGGRLQTSPAPIQTTPPKDTCSPELLMSLIQTKCADDAMTLVLKKELVAHLKCTITGLTFWDPSCEAEDRGDKFVLRSAYSSCGMQVSASMISNEAVVNILSSSSPQRKKVHCLNMDSLSFQLGLYLSPHFLQASNTIEPGQQSFVQVRVSPSVSEFLLQLDSCHLDLGPEGGTVELIQGRAAKGNCVSLLSPSPEGDPRFSFLLHFYTVPIPKTGTLSCTVALRPKTGSQDQEVHRTVFMRLNIISPDLSGCTSKG | 9.81 | 0.00198 | 200000 | – | –
unfused (non-mMBP fused) wild-type OR, ENG E26-S337 (domain or fragment) ETVHCDLQPVGPERGEVTYTTSQVSKGCVAQAPNAILEVHVLFLEFPTGPSQLELTLQASKQNGTWPREVLLVLSVNSSVFLHLQALGIPLHLAYNSSLVTFQEPPGVNTTELPSFPKTQILEWAAERGPITSAAELNDPQSILLRLGQAQGSLSFCMLEASQDMGRTLEWRPRTPALVRGCHLEGVAGHKEAHILRVLPGHSAGPRTVTVKVELSCAPGDLDAVLILQGPPYVSWLIDANHNMQIWTTGEYSFKIFPEKNIRGFKLPDTPQGLLGEARMLNASIVASFVELPLASIVSLHASSCGGRLQTS | 295 | 0.0871 | 295000 | – | –
^MOR as used in biolayer interferometry (domain or fragment) ETVHCDLQPVGPERGEVTYTTSQVSKGCVAQAPNAILEVHVLFLEFPTGPSQLELTLQASKQNGTWPREVLLVLSVNSSVFLHLQALGIPLHLAYNSSLVTFQEPPGVNTTELPSFPKTQILEWAAERGPITSAAELNDPQSILLRLGQAQGSLSFCMLEASQDMGRTLEWRPRTPALVRGCHLEGVAGHKEAHILRVLPGHSAGPRTVTVKVELSCAPGDLDAVLILQGPPYVSWLIDANHNMQIWTTGEYSFKIFPEKNIRGFKLPDTPQGLLGEARMLNASIVASFVELPLASIVSLHASSCGGRLQTS | 179 | 0.0622 | 349000 | – | –
His-^MECTO (His-tagged, mMBP-fused ENG ectodomain) (receptor, human, UniProt P17813 26-586, looked up) ETVHCDLQPVGPERGEVTYTTSQVSKGCVAQAPNAILEVHVLFLEFPTGPSQLELTLQASKQNGTWPREVLLVLSVNSSVFLHLQALGIPLHLAYNSSLVTFQEPPGVNTTELPSFPKTQILEWAAERGPITSAAELNDPQSILLRLGQAQGSLSFCMLEASQDMGRTLEWRPRTPALVRGCHLEGVAGHKEAHILRVLPGHSAGPRTVTVKVELSCAPGDLDAVLILQGPPYVSWLIDANHNMQIWTTGEYSFKIFPEKNIRGFKLPDTPQGLLGEARMLNASIVASFVELPLASIVSLHASSCGGRLQTSPAPIQTTPPKDTCSPELLMSLIQTKCADDAMTLVLKKELVAHLKCTITGLTFWDPSCEAEDRGDKFVLRSAYSSCGMQVSASMISNEAVVNILSSSSPQRKKVHCLNMDSLSFQLGLYLSPHFLQASNTIEPGQQSFVQVRVSPSVSEFLLQLDSCHLDLGPEGGTVELIQGRAAKGNCVSLLSPSPEGDPRFSFLLHFYTVPIPKTGTLSCTVALRPKTGSQDQEVHRTVFMRLNIISPDLSGCTSKG | – | – | – | 2 | –
ECTO-Myc (Myc-tagged ENG ectodomain) (receptor, human, UniProt P17813 26-586, looked up) ETVHCDLQPVGPERGEVTYTTSQVSKGCVAQAPNAILEVHVLFLEFPTGPSQLELTLQASKQNGTWPREVLLVLSVNSSVFLHLQALGIPLHLAYNSSLVTFQEPPGVNTTELPSFPKTQILEWAAERGPITSAAELNDPQSILLRLGQAQGSLSFCMLEASQDMGRTLEWRPRTPALVRGCHLEGVAGHKEAHILRVLPGHSAGPRTVTVKVELSCAPGDLDAVLILQGPPYVSWLIDANHNMQIWTTGEYSFKIFPEKNIRGFKLPDTPQGLLGEARMLNASIVASFVELPLASIVSLHASSCGGRLQTSPAPIQTTPPKDTCSPELLMSLIQTKCADDAMTLVLKKELVAHLKCTITGLTFWDPSCEAEDRGDKFVLRSAYSSCGMQVSASMISNEAVVNILSSSSPQRKKVHCLNMDSLSFQLGLYLSPHFLQASNTIEPGQQSFVQVRVSPSVSEFLLQLDSCHLDLGPEGGTVELIQGRAAKGNCVSLLSPSPEGDPRFSFLLHFYTVPIPKTGTLSCTVALRPKTGSQDQEVHRTVFMRLNIISPDLSGCTSKG | – | – | – | 2 | –
^MZP (mMBP-fused ENG P338-G581, zona pellucida module) (domain or fragment, human, UniProt P17813 338-581, looked up) PAPIQTTPPKDTCSPELLMSLIQTKCADDAMTLVLKKELVAHLKCTITGLTFWDPSCEAEDRGDKFVLRSAYSSCGMQVSASMISNEAVVNILSSSSPQRKKVHCLNMDSLSFQLGLYLSPHFLQASNTIEPGQQSFVQVRVSPSVSEFLLQLDSCHLDLGPEGGTVELIQGRAAKGNCVSLLSPSPEGDPRFSFLLHFYTVPIPKTGTLSCTVALRPKTGSQDQEVHRTVFMRLNIISPDLSG | – | – | – | 2 | –
bone morphogenetic protein 9 (BMP9), mature homodimer, untagged, expressed in HEK293 cells (ligand, human, UniProt Q9UK05 320-429, looked up) SAGAGSHCQKTSLRVNFEDIGWDSWIIAPKEYEAYECKGGCFFPLADDVTPTKHAIVQTLVHLKFPTKVGKACCVPTKLSPISVLYKDDMGVPTLKYHYEGMSVAECGCR | – | – | – | – | stoichiometry N [3]: 1 2:2 (ENG chains : BMP9 chains)
B1 | – | – | – | – | stoichiometry N (SEC-MALS): 2
